Columns and labels:
Conditions in all cases: qPCR; 3 mM MgCl2, 37 C
[1] = test system: T1, MG153-8 RT (uncultivated organism (metagenomic))
T1 sequence: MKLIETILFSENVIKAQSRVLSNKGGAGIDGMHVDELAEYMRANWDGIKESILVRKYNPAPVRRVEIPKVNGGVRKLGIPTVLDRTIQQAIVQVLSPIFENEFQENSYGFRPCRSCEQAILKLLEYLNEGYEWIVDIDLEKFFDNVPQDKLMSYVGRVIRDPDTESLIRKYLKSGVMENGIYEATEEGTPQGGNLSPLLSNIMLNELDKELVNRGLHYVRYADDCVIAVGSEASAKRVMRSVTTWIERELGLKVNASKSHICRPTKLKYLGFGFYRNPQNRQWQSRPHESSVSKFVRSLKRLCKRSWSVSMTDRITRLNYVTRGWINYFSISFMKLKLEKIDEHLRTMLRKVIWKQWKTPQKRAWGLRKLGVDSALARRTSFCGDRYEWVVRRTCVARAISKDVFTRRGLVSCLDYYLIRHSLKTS

[2] = test system: T2, MG153-27 RT (uncultivated organism (metagenomic))
T2 sequence: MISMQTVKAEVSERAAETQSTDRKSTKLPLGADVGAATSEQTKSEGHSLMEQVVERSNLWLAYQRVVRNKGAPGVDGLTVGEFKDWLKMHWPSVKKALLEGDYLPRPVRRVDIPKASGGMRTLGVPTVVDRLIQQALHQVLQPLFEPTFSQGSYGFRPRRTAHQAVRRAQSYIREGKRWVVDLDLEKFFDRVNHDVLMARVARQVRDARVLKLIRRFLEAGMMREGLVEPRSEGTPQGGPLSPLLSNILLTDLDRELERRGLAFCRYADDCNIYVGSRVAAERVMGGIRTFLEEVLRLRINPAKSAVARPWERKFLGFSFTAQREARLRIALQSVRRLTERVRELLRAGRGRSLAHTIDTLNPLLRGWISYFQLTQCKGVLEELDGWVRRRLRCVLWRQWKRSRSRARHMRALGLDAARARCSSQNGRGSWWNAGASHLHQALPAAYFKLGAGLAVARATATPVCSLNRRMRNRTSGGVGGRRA

[3] = test system: T3, MG153-47 RT (uncultivated organism (metagenomic))
T3 sequence: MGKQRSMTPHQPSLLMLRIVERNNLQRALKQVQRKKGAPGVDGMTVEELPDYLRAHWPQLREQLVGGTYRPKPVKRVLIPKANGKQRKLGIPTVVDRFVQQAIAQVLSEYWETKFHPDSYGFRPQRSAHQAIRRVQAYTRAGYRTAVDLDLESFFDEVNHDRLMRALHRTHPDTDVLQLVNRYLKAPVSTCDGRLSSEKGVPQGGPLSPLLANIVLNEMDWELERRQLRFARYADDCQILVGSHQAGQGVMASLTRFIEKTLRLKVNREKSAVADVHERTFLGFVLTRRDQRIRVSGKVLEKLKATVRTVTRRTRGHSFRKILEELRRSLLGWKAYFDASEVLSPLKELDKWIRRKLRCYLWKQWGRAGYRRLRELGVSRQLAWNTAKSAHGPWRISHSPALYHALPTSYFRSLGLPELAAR

[4] = test system: T4, MG153-40 RT (uncultivated organism (metagenomic))
T4 sequence: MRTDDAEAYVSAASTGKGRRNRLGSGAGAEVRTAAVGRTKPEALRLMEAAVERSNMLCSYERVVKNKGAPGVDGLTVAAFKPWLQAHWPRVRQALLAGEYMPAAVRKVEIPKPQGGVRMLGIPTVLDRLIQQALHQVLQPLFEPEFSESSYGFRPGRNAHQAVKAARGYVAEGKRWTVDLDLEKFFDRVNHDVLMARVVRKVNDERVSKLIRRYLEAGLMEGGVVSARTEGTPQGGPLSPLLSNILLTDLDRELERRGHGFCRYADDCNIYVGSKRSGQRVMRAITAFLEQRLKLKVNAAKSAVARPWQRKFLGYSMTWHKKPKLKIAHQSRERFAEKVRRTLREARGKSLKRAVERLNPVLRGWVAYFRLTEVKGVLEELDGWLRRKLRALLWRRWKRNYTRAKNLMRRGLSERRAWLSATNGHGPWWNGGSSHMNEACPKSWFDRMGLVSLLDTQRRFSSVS

[5] = test system: T5, MG153-17 RT (uncultivated organism (metagenomic))
T5 sequence: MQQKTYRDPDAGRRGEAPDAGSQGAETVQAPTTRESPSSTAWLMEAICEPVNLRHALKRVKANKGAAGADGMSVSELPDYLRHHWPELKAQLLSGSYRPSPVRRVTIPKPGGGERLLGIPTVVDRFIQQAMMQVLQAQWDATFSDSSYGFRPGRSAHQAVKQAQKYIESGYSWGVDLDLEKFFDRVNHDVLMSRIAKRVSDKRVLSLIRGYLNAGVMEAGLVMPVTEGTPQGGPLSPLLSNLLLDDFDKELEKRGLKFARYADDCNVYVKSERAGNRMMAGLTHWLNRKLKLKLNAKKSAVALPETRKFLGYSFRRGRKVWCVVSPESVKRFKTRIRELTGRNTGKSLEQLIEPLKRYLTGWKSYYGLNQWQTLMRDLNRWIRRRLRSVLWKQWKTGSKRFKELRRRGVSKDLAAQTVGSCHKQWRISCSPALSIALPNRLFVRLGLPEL

[6] = test system: T6, MG153-14 RT (uncultivated organism (metagenomic))
T6 sequence: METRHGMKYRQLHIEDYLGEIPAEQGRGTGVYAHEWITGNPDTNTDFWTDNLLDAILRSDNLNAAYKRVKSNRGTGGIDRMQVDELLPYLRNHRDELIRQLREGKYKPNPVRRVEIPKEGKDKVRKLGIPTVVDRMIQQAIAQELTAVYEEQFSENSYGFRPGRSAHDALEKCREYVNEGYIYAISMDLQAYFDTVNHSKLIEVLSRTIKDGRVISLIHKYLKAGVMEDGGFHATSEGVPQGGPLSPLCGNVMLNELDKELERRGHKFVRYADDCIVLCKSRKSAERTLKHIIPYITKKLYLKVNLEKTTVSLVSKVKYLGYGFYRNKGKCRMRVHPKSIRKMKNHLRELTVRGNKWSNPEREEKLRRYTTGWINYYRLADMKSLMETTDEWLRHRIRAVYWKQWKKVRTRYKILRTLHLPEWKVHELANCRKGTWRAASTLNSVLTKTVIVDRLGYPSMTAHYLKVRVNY

Measured: activity (fold over background)

200 nt RNA template annealed to DNA primer
> 10: [1] | [2] | [3] | [4] | [5] | [6]
